{"source": "paper PMC4980159", "about": "(Biochemistry, 2016)", "molecules": {"B1": {"name": "Fluorescently labeled NCCM3 H139C (domain or fragment, human)", "chain": "PGSGAKLTIESMPLSVAEGKEVLLLVHNLPQHLFGYSWYKGERVDGNSLIVGYVIGTQQATPGAAYSGRETIYTNASLLIQNVTQNDIGFYTLQVIKSDLVNEEATGQFCVYQ", "modifications": "AMS (4-acetamido-4'-maleimidylstilbene-2,2'-disulfonic acid) on the introduced cysteine (H139C)"}, "B2": {"name": "Fluorescently labeled NCCM1 H139C (domain or fragment, human, UniProt P13688-1 35-141, looked up)", "chain": "QLTTESMPFNVAEGKEVLLLVHNLPQQLFGYSWYKGERVDGNRQIVGYAIGTQQATPGPANSGRETIYPNASLLIQNVTQNDTGFYTLQVIKSDLVNEEATGQFCVY", "modifications": "AMS (4-acetamido-4'-maleimidylstilbene-2,2'-disulfonic acid) on the introduced cysteine (H139C)"}}, "key": {"[1]": {"target": "CEACAM5 N-terminal domain (Homo sapiens) (UniProt P06731)", "conditions": "cited from earlier work"}, "[2]": {"target": "CEACAM5 N-terminal domain (Homo sapiens) (UniProt P06731)", "conditions": "cited from earlier work", "remark": "listed apart in the source"}, "[3]": {"target": "Fibronectin (Homo sapiens) (UniProt P02751)", "sequence (P02751 32-2477)": "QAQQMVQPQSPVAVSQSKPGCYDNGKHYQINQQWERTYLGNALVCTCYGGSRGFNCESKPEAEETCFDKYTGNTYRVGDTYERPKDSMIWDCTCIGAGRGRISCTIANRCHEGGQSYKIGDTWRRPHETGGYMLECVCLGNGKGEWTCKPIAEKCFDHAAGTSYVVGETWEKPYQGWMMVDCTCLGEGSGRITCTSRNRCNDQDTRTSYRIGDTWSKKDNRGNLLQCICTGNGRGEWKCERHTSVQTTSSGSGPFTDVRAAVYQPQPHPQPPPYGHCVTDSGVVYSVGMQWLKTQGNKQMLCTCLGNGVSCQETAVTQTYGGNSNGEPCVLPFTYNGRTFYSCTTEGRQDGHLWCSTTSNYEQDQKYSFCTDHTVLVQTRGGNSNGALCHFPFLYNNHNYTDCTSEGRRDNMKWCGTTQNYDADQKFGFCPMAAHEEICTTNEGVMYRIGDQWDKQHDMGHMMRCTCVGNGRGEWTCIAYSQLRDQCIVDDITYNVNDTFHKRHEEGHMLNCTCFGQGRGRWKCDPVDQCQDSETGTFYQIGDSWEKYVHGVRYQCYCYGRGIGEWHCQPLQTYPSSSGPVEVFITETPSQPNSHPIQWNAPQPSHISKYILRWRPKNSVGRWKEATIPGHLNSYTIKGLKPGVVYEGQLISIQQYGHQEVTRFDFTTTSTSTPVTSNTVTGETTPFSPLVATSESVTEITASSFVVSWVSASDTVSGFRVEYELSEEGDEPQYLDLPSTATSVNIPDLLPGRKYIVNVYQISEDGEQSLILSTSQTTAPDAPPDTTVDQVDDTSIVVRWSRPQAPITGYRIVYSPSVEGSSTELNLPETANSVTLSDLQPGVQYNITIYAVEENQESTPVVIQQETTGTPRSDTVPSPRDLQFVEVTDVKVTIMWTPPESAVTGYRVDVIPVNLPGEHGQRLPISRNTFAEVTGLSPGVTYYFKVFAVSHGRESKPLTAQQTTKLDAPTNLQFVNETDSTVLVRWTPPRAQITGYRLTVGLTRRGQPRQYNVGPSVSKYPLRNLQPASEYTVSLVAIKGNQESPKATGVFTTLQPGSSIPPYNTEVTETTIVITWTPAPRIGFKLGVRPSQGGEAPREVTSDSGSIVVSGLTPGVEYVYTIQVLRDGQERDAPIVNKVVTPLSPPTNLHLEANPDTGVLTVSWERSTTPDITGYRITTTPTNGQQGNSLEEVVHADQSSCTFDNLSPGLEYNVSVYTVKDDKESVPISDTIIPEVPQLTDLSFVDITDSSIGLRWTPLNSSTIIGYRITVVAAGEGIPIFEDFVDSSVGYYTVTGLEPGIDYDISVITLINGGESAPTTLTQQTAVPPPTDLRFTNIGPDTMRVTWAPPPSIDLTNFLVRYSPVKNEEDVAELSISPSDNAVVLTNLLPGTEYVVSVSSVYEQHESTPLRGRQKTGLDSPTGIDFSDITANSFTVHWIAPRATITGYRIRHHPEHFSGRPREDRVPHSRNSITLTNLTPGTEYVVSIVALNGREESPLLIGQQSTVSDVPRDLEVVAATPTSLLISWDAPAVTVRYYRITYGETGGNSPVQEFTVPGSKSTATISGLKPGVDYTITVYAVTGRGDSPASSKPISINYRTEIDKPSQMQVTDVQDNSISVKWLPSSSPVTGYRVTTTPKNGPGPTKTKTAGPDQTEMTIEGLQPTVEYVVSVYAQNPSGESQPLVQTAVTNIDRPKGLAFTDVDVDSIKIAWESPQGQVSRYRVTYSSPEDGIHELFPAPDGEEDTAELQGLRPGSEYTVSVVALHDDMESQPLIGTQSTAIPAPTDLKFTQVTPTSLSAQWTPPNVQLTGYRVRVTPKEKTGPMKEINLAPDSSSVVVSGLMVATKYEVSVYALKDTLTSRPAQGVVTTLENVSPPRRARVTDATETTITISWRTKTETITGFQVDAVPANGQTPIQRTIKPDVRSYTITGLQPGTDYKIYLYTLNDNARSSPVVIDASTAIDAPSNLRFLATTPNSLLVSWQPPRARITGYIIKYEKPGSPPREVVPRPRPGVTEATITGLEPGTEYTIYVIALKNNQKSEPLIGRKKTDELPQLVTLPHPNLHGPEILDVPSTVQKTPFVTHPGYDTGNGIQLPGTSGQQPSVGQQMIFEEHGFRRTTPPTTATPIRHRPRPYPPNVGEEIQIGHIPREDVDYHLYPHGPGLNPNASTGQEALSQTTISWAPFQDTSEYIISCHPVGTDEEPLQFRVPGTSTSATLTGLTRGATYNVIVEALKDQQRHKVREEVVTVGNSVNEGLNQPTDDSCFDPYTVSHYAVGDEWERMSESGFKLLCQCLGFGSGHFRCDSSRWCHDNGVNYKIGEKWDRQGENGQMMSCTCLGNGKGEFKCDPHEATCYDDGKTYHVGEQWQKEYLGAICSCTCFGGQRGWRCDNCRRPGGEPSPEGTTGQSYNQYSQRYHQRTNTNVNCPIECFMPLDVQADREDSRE", "conditions": "cited from earlier work"}, "[4]": {"target": "Fluorescently labeled NCCM3 H139C (human) (UniProt P40198)", "assay": "fluorescence polarisation"}, "[5]": {"target": "Fluorescently labeled NCCM1 H139C (human) (UniProt P13688)", "assay": "fluorescence polarisation"}, "[6]": {"target": "Recombinant OpaD reconstituted into liposomes (N. gonorrhoeae strain FA1090, UniProt Q04883 2-243)", "assay": "fluorescence polarisation"}}, "note": "Where two headings read alike, the source gives them in different places.", "data": [{"molecule": "CEACAM5 A3 domain (from UniProt P06731)", "values": [{"measurement": "Kd", "setting": "[1]", "value": 18, "unit": "nM"}]}, {"molecule": "CEACAM5 N-terminal domain (from UniProt P06731)", "values": [{"measurement": "Kd", "setting": "[2]", "value": 100, "unit": "nM"}, {"measurement": "Kd", "setting": "[3]", "value": 16, "unit": "nM"}]}, {"molecule": "Recombinant Opa60 reconstituted into liposomes (natural protein)", "values": [{"measurement": "Kd", "setting": "[4]", "value": 4.3, "unit": "nM"}, {"measurement": "Kd", "setting": "[5]", "value": 1.6, "unit": "nM"}]}, {"molecule": "B1", "values": [{"measurement": "Kd", "setting": "[6]", "value": "6.8 ± 2.2", "unit": "nM"}]}, {"molecule": "B2", "values": [{"measurement": "Kd", "setting": "[6]", "value": "2.6 ± 1.3", "unit": "nM"}]}]}
